The record followed here is patent US20230113734A1.

This assay addresses SARS-CoV-2 S protein (spike protein) (SARS-CoV-2) (UniProt P0DTC2). Kind of assay: ELISA, S proteins on plate (the reference itself). In general terms: ELISA stands for enzyme-linked immunosorbent assay.

In the case of positive control antibody (CR3022), the Binding ability (relative to positive control antibody) turned out to be 1.
